Values belong to the molecule of their own block, whether it stands above or below them. Square brackets hold non-standard residues; d marks the D form. Side chains are listed from the residue outwards. * marks the point of attachment. Gal‑1 = GalNAc linker: 5-(GalNAc-oxy)pentanoic acid (3-acetamido-4,5-diacetoxy-6-(acetoxymethyl)tetrahydropyran-2-yl-oxy)pentanoic acid; Gal‑3 = GalNAc linker: 4-(GalNAc-oxy)butanoic acid (3-acetamido-4,5-diacetoxy-6-(acetoxymethyl)tetrahydropyran-2-yl-oxy)butanoic acid; 5FAM = O=C1OC2(c3ccc(O)cc3Oc3cc(O)ccc32)c2ccc(C(=O)*)cc21; Linker2 = 6-aminohexyl amide linker; GalNAc = N-acetylgalactosamine
Key:
[1] = system: HepG2 cells; experiment: Cellular uptake / binding of FAM-labeled ligands to HepG2 cells (flow cytometry, proportion of FAM positive cells); assay type: cell-based, human; conditions: for Efficiency (%) of cellular uptake (percentage of ligand-bound HepG2 cells): 24 h
Description: The human hepatocellular carcinoma (HepG2) cell line was purchased from Shanghai Zhong Qiao Xin Zhou Biotechnology Co., Ltd. and maintained in minimum essential medium (Gibco, ThermoFisher Scientific, USA) with 10% fetal bovine serum (Gibco, ThermoFisher Scientific, USA), 200 units/mL penicillin plus 200 units/mL streptomycin at 37° C. with 5% CO2.
Cells were seeded in 24-well plates with a density of 1.5×10^5 cells per well and incubated under 37° C., 5% CO2. After 18 h of incubation, media were replaced to MEM with 2% FBS and FAM-labeled ligands were added with final concentrations of 1.6, 8, 40 or 200 nM. After 24 h of incubation, cells were washed twice with 1×PBS and analyzed by LSRFortessa (BD Biosciences, NJ, USA). The binding efficiency was evaluated by the proportion of FAM positive cells.
HepG2 cell was treated by 14 cyclic peptide-tri-GalNAc ligand variants with serial diluted concentration of 1.6, 8, 40 or 200 nM. Commercialized tri-GalNAc used in Givosirna was used as positive control and cyclic peptide w/o tri-GalNAc was negative control. […] Equilibrium dissociation constant (kd) for 5-FAM-CPMB-0013 (ID013), 5-FAM-CPMB-0023 (ID023), 5-FAM-CPMB-0035 (ID035) and commercialized tri-GalNAC were 7.0, 8.6, 5.7 and 18 nM, respectively.

[2] = target: asialoglycoprotein receptor (ASGPR) on HepG2 cells (human) (UniProt P07306); experiment: flow cytometry, % FAM-positive HepG2 cells after 24 h with 8 nM ligand
Chain of asialoglycoprotein receptor (ASGPR) on HepG2 cells (human) (P07306 whole entry, chain 1 of 2): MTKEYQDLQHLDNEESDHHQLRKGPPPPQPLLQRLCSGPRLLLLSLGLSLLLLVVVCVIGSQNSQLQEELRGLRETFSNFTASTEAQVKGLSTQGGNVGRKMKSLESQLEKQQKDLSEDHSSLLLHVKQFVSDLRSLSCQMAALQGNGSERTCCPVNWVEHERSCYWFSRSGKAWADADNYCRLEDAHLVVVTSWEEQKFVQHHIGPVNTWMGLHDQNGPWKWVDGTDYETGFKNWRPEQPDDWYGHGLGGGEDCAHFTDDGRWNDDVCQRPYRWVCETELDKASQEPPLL
Chain of asialoglycoprotein receptor (ASGPR) on HepG2 cells (human) (P07307 whole entry, chain 2 of 2, further chain): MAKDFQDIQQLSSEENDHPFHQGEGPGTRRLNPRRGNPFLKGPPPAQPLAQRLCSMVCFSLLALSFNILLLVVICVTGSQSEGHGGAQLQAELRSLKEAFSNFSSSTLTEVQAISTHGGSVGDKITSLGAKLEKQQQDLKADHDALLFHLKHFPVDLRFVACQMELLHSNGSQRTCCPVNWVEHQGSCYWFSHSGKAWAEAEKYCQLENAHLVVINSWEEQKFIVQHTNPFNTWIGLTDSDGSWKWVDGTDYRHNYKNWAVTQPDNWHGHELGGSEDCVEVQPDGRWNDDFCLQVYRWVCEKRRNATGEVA

[3] = target: asialoglycoprotein receptor (ASGPR) on HepG2 cells (human) (UniProt P07306); experiment: flow cytometry, % FAM-positive HepG2 cells after 24 h with 40 nM ligand
[4] = target: asialoglycoprotein receptor (ASGPR) on HepG2 cells (human) (UniProt P07306); experiment: flow cytometry, % FAM-positive HepG2 cells after 24 h with 1.6 nM ligand
[5] = target: asialoglycoprotein receptor (ASGPR) on HepG2 cells (human) (UniProt P07306); experiment: flow cytometry, % FAM-positive HepG2 cells after 24 h with 200 nM ligand
[6] = target: asialoglycoprotein receptor (ASGPR) on HepG2 cells (human) (UniProt P07306); experiment: flow cytometry titration on HepG2 cells (% FAM-positive cells, 1.6-200 nM, 24 h)

Molecule: 5-FAM-CPMB-0035: CPS-003 cyclic peptide scaffold, Gal-5 GalNAc linker, 5-FAM label; FIG. 14L (KEKGKG; D-residues; cyclised or stapled)
Efficiency (%) of cellular uptake (percentage of ligand-bound HepG2 cells) ([1]; 1.6 nM ligand, HepG2): 11.1%
Efficiency (%) of cellular uptake (percentage of ligand-bound HepG2 cells) ([1]; 8 nM ligand, HepG2): 63.2%
Efficiency (%) of cellular uptake (percentage of ligand-bound HepG2 cells) ([1]; 40 nM ligand, HepG2): 95.2%
Efficiency (%) of cellular uptake (percentage of ligand-bound HepG2 cells) ([1]; 200 nM ligand, HepG2): 99.5%
Kd ([1]; HepG2 cells, read-out: Equilibrium dissociation constant (kd)): 5.7 nM
binding ability as compared to others and commercialized tri-GalNAc ([1]; among 14 variants, HepG2): relatively higher binding ability

Molecule: 5-FAM-CPMB-0311: CPS-031 cyclic peptide scaffold, Gal-1 GalNAc linker, 5-FAM label; FIG. 14M (KEKAKA; cyclised or stapled)
Efficiency (%) of cellular uptake (percentage of ligand-bound HepG2 cells) ([1]; 1.6 nM ligand, HepG2): 3.1%
Efficiency (%) of cellular uptake (percentage of ligand-bound HepG2 cells) ([1]; 8 nM ligand, HepG2): 20.8%
Efficiency (%) of cellular uptake (percentage of ligand-bound HepG2 cells) ([1]; 40 nM ligand, HepG2): 68.8%
Efficiency (%) of cellular uptake (percentage of ligand-bound HepG2 cells) ([1]; 200 nM ligand, HepG2): 93.3%

Molecule: 5-FAM-CPMB-0313: CPS-031 cyclic peptide scaffold, Gal-3 GalNAc linker, 5-FAM label; FIG. 14N (KEKAKA; cyclised or stapled)
Efficiency (%) of cellular uptake (percentage of ligand-bound HepG2 cells) ([1]; 1.6 nM ligand, HepG2): 3.0%
Efficiency (%) of cellular uptake (percentage of ligand-bound HepG2 cells) ([1]; 8 nM ligand, HepG2): 24.6%
Efficiency (%) of cellular uptake (percentage of ligand-bound HepG2 cells) ([1]; 40 nM ligand, HepG2): 73.2%
Efficiency (%) of cellular uptake (percentage of ligand-bound HepG2 cells) ([1]; 200 nM ligand, HepG2): 95.1%

Molecule: cyclo([dK]([Gal‑3-GalNAc])[dE]([Linker2-5FAM])[dK]([Gal‑3-GalNAc])G[dK]([Gal‑3-GalNAc])G) [5-FAM-CPMB-0023]
Efficiency (%) (proportion of FAM positive cells) [2]: 47.2%
Efficiency (%) (proportion of FAM positive cells) [3]: 91.2%
Efficiency (%) (proportion of FAM positive cells) [4]: 6.2%
Efficiency (%) (proportion of FAM positive cells) [5]: 99.2%
Kd [6]: 8.6 nM

B1: 5-FAM-CPMB-0025 (peptide)
peptide: KEKGKG
modifications: head-to-tail cyclic; D-Lys at the three Lys positions and D-Glu; each D-Lys side chain carries GalNAc via linker Gal-5; D-Glu side chain carries Linker2 with 5-FAM
Efficiency (%) (proportion of FAM positive cells) [2]: 30%
Efficiency (%) (proportion of FAM positive cells) [3]: 83.1%
Efficiency (%) (proportion of FAM positive cells) [4]: 1.6%
Efficiency (%) (proportion of FAM positive cells) [5]: 98.2%

Molecule: cyclo([dK]([Gal‑1-GalNAc])[dE]([Linker2-5FAM])[dK]([Gal‑1-GalNAc])G[dK]([Gal‑1-GalNAc])G) [5-FAM-CPMB-0021]
Efficiency (%) (proportion of FAM positive cells) [2]: 46.1%
Efficiency (%) (proportion of FAM positive cells) [3]: 88.7%
Efficiency (%) (proportion of FAM positive cells) [4]: 6.8%
Efficiency (%) (proportion of FAM positive cells) [5]: 98.8%

Molecule: cyclo(K([Gal‑1-GalNAc])[dE]([Linker2-5FAM])K([Gal‑1-GalNAc])GK([Gal‑1-GalNAc])G) [5-FAM-CPMB-0031]
Efficiency (%) (proportion of FAM positive cells) [2]: 44.2%
Efficiency (%) (proportion of FAM positive cells) [3]: 87.8%
Efficiency (%) (proportion of FAM positive cells) [4]: 6%
Efficiency (%) (proportion of FAM positive cells) [5]: 98.6%

Results, then the molecule that gave them:

Efficiency (%) (proportion of FAM positive cells) [2]: 34.5%
Efficiency (%) (proportion of FAM positive cells) [3]: 82.9%
Efficiency (%) (proportion of FAM positive cells) [4]: 5.3%
Efficiency (%) (proportion of FAM positive cells) [5]: 98.2%
Molecule: cyclo(K([Gal‑3-GalNAc])[dE]([Linker2-5FAM])K([Gal‑3-GalNAc])GK([Gal‑3-GalNAc])G) [5-FAM-CPMB-0033]

Efficiency (%) (proportion of FAM positive cells) [2]: 25.6%
Efficiency (%) (proportion of FAM positive cells) [3]: 73.6%
Efficiency (%) (proportion of FAM positive cells) [4]: 2%
Efficiency (%) (proportion of FAM positive cells) [5]: 95.6%
B2: 5-FAM-CPMB-0034 (peptide)
peptide: KEKGKG
modifications: head-to-tail cyclic; D-Glu; each Lys side chain carries GalNAc via linker Gal-4; D-Glu side chain carries Linker2 with 5-FAM

Efficiency (%) (proportion of FAM positive cells) [2]: 63.2%
Efficiency (%) (proportion of FAM positive cells) [3]: 95.2%
Efficiency (%) (proportion of FAM positive cells) [4]: 11.1%
Efficiency (%) (proportion of FAM positive cells) [5]: 99.5%
Kd [6]: 5.7 nM
B3: 5-FAM-CPMB-0035 (peptide)
peptide: KEKGKG
modifications: head-to-tail cyclic; D-Glu; each Lys side chain carries GalNAc via linker Gal-5; D-Glu side chain carries Linker2 with 5-FAM

From patent publication US20240218023A1, “CYCLIC PEPTIDE-N-ACETYLGALACTOSAMINE (GALNAC) CONJUGATES FOR DRUG DELIVERY TO LIVER CELLS” (MICROBIO (SHANGHAI) CO., LTD., priority 2021, published 2024)
